Measurements from US7666582B2, “IdeS, an IgG-degrading enzyme of Streptococcus pyogenes” (Hansa Medical Research AB, priority 2001, dated 2010).

Tests used:
[1] = tested on: human IgM; test: IdeS cleavage assay of Ig classes: IgM; assay type: biochemical; conditions: purified IdeS, 2 h at 37° C.
Protocol: (§1) For standard IdeS activity assays, bacteria cultures were grown to OD620=0.4. Bacteria were pelleted by centrifugation and supernatants were sterile-filtered through a 0.22 μm membrane (Millipore) prior to use. For activity assays, […] of supernatant were mixed with 5 μl of IgG (10 mg/ml, Sigma) and the volume was adjusted with PBS to 100 μl. For screening of IdeS activity in different S. progenes strains, E64 was added to a final concentration of 40 μM. The mixtures were incubated at 37° C. for 30 min and samples were analyzed by 12% SDS-PAGE. For cleavage assays of different classes of Ig, purified IdeS (0.3 μg/ml) was incubated with 3 μg Ig for 2 h at 37° C., and analyzed by 12% SDS-PAGE analysis.

[2] = tested on: human IgA; test: IdeS cleavage assay of Ig classes: IgA; assay type: biochemical; conditions: purified IdeS, 2 h at 37° C.
Protocol: as §1

[3] = biological target: T1, fibrinogen (Homo sapiens, UniProt P02671+P02675+P02679); test: IdeS cleavage of other human proteins: fibrinogen; assay type: biochemical
T1 sequence (P02671 20-629 limits assumed): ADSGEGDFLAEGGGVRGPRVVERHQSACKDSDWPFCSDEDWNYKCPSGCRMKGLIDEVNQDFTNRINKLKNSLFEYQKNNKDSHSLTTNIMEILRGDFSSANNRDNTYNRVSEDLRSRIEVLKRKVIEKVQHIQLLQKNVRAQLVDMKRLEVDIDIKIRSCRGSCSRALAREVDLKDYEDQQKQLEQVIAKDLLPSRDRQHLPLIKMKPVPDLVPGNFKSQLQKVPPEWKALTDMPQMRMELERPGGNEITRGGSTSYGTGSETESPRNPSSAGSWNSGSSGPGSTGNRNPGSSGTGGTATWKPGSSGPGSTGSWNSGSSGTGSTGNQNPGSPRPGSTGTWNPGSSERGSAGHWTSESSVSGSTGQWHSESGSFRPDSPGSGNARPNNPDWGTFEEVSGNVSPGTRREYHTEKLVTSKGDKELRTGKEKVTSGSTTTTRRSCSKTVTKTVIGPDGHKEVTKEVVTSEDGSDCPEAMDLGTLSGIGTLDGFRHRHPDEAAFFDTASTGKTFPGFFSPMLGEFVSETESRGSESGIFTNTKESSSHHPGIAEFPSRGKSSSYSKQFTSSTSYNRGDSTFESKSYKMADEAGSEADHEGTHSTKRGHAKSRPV
T1 sequence (P02675 31-491): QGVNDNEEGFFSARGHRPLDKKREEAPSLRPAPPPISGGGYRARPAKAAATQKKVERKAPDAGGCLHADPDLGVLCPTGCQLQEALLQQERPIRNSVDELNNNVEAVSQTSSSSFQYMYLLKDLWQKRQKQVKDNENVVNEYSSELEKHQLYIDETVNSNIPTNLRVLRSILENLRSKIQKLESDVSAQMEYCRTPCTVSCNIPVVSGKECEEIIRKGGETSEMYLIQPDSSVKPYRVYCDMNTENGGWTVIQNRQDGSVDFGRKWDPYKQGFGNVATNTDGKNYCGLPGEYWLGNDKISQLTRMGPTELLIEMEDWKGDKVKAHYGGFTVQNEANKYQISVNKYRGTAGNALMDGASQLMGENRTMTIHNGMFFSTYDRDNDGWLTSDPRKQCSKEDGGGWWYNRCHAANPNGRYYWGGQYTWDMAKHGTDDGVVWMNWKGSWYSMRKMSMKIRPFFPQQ
T1 sequence (P02679 27-453): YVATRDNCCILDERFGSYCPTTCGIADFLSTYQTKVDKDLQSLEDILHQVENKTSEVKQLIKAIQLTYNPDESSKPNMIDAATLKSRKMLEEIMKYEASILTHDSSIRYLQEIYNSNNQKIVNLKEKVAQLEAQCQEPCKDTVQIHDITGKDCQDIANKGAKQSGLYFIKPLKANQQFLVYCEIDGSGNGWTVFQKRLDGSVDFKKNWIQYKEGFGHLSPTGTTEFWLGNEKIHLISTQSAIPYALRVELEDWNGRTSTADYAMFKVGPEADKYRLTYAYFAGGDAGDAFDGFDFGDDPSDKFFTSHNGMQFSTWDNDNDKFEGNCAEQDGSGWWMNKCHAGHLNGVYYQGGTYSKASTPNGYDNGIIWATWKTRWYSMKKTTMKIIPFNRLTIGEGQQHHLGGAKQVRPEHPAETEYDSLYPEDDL

[4] = biological target: lactoferrin (Homo sapiens, UniProt P02788); test: IdeS cleavage of other human proteins: lactoferrin; assay type: biochemical
lactoferrin, sequence (P02788 20-710): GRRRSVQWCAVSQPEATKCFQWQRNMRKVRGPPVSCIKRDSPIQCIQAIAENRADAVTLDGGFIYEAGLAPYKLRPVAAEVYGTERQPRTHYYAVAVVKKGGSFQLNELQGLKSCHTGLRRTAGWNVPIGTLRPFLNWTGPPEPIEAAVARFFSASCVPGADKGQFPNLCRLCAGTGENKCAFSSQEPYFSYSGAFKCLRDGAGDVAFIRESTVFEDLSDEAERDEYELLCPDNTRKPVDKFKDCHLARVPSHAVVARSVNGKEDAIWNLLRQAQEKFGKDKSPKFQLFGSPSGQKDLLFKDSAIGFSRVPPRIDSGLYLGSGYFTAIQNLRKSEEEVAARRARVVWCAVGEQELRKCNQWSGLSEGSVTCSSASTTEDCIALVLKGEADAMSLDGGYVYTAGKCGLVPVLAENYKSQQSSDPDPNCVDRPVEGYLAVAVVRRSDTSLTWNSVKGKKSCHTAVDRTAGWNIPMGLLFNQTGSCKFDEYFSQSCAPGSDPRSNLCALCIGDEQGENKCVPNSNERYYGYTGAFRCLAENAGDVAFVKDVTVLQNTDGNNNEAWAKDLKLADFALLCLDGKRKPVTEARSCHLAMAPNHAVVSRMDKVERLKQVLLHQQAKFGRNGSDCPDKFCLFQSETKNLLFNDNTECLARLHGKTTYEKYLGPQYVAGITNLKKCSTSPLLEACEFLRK

[5] = biological target: T2, cystatin C (Homo sapiens, UniProt P01034); test: IdeS cleavage of other human proteins: cystatin C; assay type: biochemical
T2 sequence (P01034 27-146): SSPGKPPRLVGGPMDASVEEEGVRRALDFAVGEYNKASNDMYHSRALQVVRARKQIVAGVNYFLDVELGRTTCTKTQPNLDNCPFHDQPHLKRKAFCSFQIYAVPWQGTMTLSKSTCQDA

[6] = tested on: IgG bound to AP1 bacteria; test: IdeS cleavage of IgG bound to S. pyogenes bacterial surface; assay type: cell-based, human; conditions: AP1 bacteria after absorption of non-immune or immune plasma

B1: IdeS: new extracellular cysteine protease produced by S. pyogenes, highly specific for IgG; SEQ ID NO: 1 (protein)
chain: DSFSANQEIRYSEVTPYHVTSVWTKGVTPPANFTQGEDVFHAPYVANQGWYDITKTFNGKDDLLCGAATAGNMLHWWFDQNKDQIKRYLEEHPEKQKINFNGEQMFDVKEAIDTKNHQLDSKLFEYFKEKAFPYLSTKHLGVFPDHVIDMFINGYRLSLTNHGPTPVKEGSKDPRGGIFDAVFTRGDQSKLLTSRHDFKEKNLKEISDLIKKELTEGKALGLSHTYANVRINHVINLWGADFDSNGNLKAIYVTDSDSNASIGMKKYFVGVNSAGKVAISAKEIKEDNIGAQVLGLFTLSTGQDSWNQTN
modifications: S. Pyogenes
For B1, the “degradation of human IgM” value [1] was “only IgG was degraded”, the “degradation of human IgA” value [2] was “only IgG was degraded” and the “cleavage products, fibrinogen” value [3] was “No cleavage products could be detected”. For the same molecule, the “cleavage products, lactoferrin” value [4] was “No cleavage products could be detected”, the “cleavage products, cystatin C” value [5] was “No cleavage products could be detected” and the “cleavage of IgG bound to the bacterial surface (31 kDa band)” value [6] was “in both cases IgG was cleaved”.
